Results from patent US8367615B2, “Stimulation of neuron regeneration by secretory leukocyte protease inhibitor” (Research Foundation of City University of New York, priority 2006, dated 2013).

B1: secretory leukocyte protease inhibitor (protein, UniProt P03973 26-132, looked up)
Antileukoproteinase: SGKSFKAGVCPPKKSAQCLRYKKPECQSDWQCPGKKRCCPDTCGIKCLDPVDTPNPTRRKPGKCPVTYGQCLMLNPPNFCEMDGQCKRDLKCCMGMCGKSCVSPVKA

How the values were obtained:
[1] = test system: older neurons; conditions: cAMP levels elevated by treatment, previously established (WO 01/85981); cited from earlier work
[2] = test system: transected nerve fibers in the spinal cord; conditions: in vivo injection; previously established (WO 01/85981); cited from earlier work
[3] = test system: DRG neurons; assay: Microarray analysis of gene expression in DRG neurons; format: cell-based; conditions: DRG neurons that received dbcAMP
Text: The effects of cAMP were the result of its ability to induce gene transcription.

[4] = test system: optic nerve; assay: Optic nerve crush, GAP-43 staining of regenerating axons; format: in vivo, rat; conditions: single intravitreal injection of 10 micrograms after optic nerve crush; two weeks; adult male Fischer rats
Procedure: SLPI's ability to promote axonal regeneration in vivo in the optic nerve was investigated. Adult male Fischer rats (200-300 g, Charles River Laboratories) were anesthetized with isofluorane and placed in a stereotaxic frame. Optic nerve crush was performed as follows. The right optic nerve was exposed and the meninges were removed. The nerve was then crushed for 10 seconds with fine forceps at a distance of 2 mm behind the eye. Special care was taken to avoid injury to the opthalmic artery. After closing the incision, the animal received a single intravitreal injection of either 5 microliters sterile saline or 10 micrograms of recombinant human SLPI (R&D Systems; 2 micrograms/microliter in 5 microliters sterile saline) in the right eye. After a two-week post-surgical survival period, the animals were sacrificed by transcardial perfusion with 4% paraformaldehyde and the optic nerves were dissected. Nerves were sectioned at a thickness of 20 microns and thaw-mounted onto gelatin-coated slides. Sections were immunostained for GAP-43 using a polyclonal sheep anti-GAP-43 antibody diluted 1:1000 in a solution of 5% rabbit serum, 2% BSA, and 0.1% Tween in Tris-buffered saline (TBS). […] Slides were coverslipped with Permafluor mounting medium (Thermo) and viewed under fluorescence. […]

[5] = test system: cortical neurons; assay: Neurite outgrowth of cortical neurons on central nervous system myelin; format: cell-based; conditions: 5 and 10 μg/ml, post-natal day 1 rat cortical neurons on CNS myelin
Procedure: FIGS. 2A and 2B are a panel of four photographs and a bar graph, respectively, showing that SLPI enhances neurite outgrowth on myelin for cortical neurons. Cortical neurons from post-natal day 1 rats were treated with 1 mM dibutyrl cAMP (dbcAMP) and 5 or 10 μg/ml SLPI, and plated onto 8-well chamber slides coated with central nervous system myelin (1 μg per well). Neurons were incubated for 24 hours and immunostained for βIII tubulin. The bar graph depicts average neurite length ±SEM.
Unlike DRG neurons, cortical neurons were inhibited by MAG and myelin at post-natal day 1.

[6] = test system: dorsal root ganglia (DRG) neurons; assay: Neurite outgrowth of DRG neurons on MAG-expressing CHO cell monolayers; format: cell-based, rat
Procedure: FIGS. 1A and 1B are a panel of four photographs and a bar graph, respectively, showing that SLPI reverses inhibition by MAG for dorsal root ganglia (“DRG”) neurons. DRG neurons from post-natal day 6 rats were treated with 2, 5, or 10 μg/ml SLPI, plated onto monolayers of either control or MAG-expressing Chinese hamster ovary (“CHO”) cells, and incubated for 16 hours. Neurons were stained for βIII tubulin and neurite length was quantified using the METAMORPH image analysis software. Data are presented ±SEM.

[7] = Tolerability on administration to live animals; format: in vivo
[8] = test system: adult DRG neurons; assay: In vivo intrathecal delivery, then neurite outgrowth of adult DRG neurons on MAG-expressing CHO cells; design: species or system rat; conditions: 2 and 5 μg/kg/hr intrathecal for 24 hours in adult rats, neurons plated on MAG-expressing CHO cells
Procedure: FIGS. 3A and 3B are a panel of four photographs and a bar graph, respectively, showing that in vivo delivery of SLPI overcomes MAG inhibition for adult DRG neurons. DRG neurons from adult rats that received infusion of 1, 2, or 5 μg/kg/hr SLPI into the spinal cord for 24 hours were plated onto control or MAG-expressing CHO cells. Neurons were incubated for 16 hours and stained for βIII tubulin. The bar graph depicts average neurite length ±SEM.
SLPI was delivered to the spinal cord by a pump.

Row | Molecule | inhibition by MAG and myelin of nerve fiber growth [1] | regeneration of transected nerve fibers in the spinal cord [2] | expression of SLPI [3] | GAP-43 positive axons in the crushed optic nerve [4] | axons extending beyond the lesion site [4] | neurite outgrowth on myelin, effect compared with 1 mM dbcAMP [5] | neurite outgrowth on myelin ([5]; 24 hours) | neurite outgrowth on MAG, most effective concentrations ([6]; 5 and 10 μg/ml, post-natal day 6 rat DRG neurons on MAG-expressing CHO cells) | neurite outgrowth on MAG ([6]; post-natal day 6 rat DRG neurons treated with 2, 5 or 10 μg/ml, on MAG-expressing CHO cells, 16 hours) | toxicity when administered to live animals [7] | MAG inhibition of DRG neurons after intrathecal delivery [8] | neurite outgrowth after intrathecal delivery ([8]; 16 hours)
1 | CCCC(=O)Nc1ncnc2c1ncn2[C@@H]1O[C@@H]2COP(=O)(O)O[C@H]2[C@H]1OC(=O)CCC [dbcAMP, dibutyrl cAMP] | inhibition was reversed | led to regeneration | greatly increased |  |  |  |  |  |  |  |  | 
2 | B1 |  |  |  | numerous GAP-43 positive axons | several of them extend beyond the lesion site | equivalent to that seen with dibutyryl AMP (dbcAMP) | significantly increased | most extensive growth | significantly increased | non-toxic | blocks MAG inhibition | significant increases
